Experimental data as given in the Human Domainome abundance scans (Beltran et al. 2025).
± gives the uncertainty stated by the source.

B1: RNA-binding E3 ubiquitin-protein ligase MEX3C, residues 325 to 391; numbered along this chain, Q5U5Q3 (parent)
chain: GQTTVQVRVPYRVVGLVVGPKGATIKRIQQQTHTYIVTPSRDKEPVFEVTGMPENVDRAREEIEMHI

Variants of: B1
Experiment: abundance fitness (aPCA) (normalised: wild type 0, dead -1); higher = more abundant; growth selection in yeast, the domain comes from the species named
Conditions: Homo sapiens

| Variant | abundance fitness |
| --- | --- |
| GQTTVQVRVPYRVVGLVVGPKGATIKRIQQQTHTYIVTPSRDKEPGFEVTGMPENVDRAREEIEMHI | -0.7 ± 0.07 |
| GQTTVQVRVPYRVVGLVVGPKGATIKRIQQQTHTYIVTPSRDKEPQFEVTGMPENVDRAREEIEMHI | -0.621 ± 0.13 |
| GQTTVQVRVPYRVVGLVVGPKGATIKRIQQQTHTYIVTPSRDKEPKFEVTGMPENVDRAREEIEMHI | -0.321 ± 0.1 |
| GQTTVQVRVPYRVVGLVVGPKGATIKRIQQQTHTYIVTPSRDKEPSFEVTGMPENVDRAREEIEMHI | -0.774 ± 0.11 |
| GQTTVQVRVPYRVVGLVVGPKGATIKRIQQQTHTYIVTPSRDKEPIFEVTGMPENVDRAREEIEMHI | -0.093 ± 0.072 |
| GQTTVQVRVPYRVVGLVVGPKGATIKRIQQQTHTYIVTPSRDKEPPFEVTGMPENVDRAREEIEMHI | -0.66 ± 0.1 |
| GQTTVQVRVPYRVVGLVVGPKGATIKRIQQQTHTYIVTPSRDKEPCFEVTGMPENVDRAREEIEMHI | -0.645 ± 0.14 |
| GQTTVQVRVPYRVVGLVVGPKGATIKRIQQQTHTYIVTPSRDKEPFFEVTGMPENVDRAREEIEMHI | -0.503 ± 0.16 |
| GQTTVQVRVPYRVVGLVVGPKGATIKRIQQQTHTYIVTPSRDKEPRFEVTGMPENVDRAREEIEMHI | -0.607 ± 0.078 |
| GQTTVQVRVPYRVVGLVVGPKGATIKRIQQQTHTYIVTPSRDKEPEFEVTGMPENVDRAREEIEMHI | -0.767 ± 0.11 |
| GQTTVQVRVPYRVVGLVVGPKGATIKRIQQQTHTYIVTPSRDKEPWFEVTGMPENVDRAREEIEMHI | -0.662 ± 0.099 |
| GQTTVQVRVPYRVVGLVVGPKGATIKRIQQQTHTYIVTPSRDKEPYFEVTGMPENVDRAREEIEMHI | -0.146 ± 0.11 |
| GQTTVQVRVPYRVVGLVVGPKGATIKRIQQQTHTYIVTPSRDKEPHFEVTGMPENVDRAREEIEMHI | -0.579 ± 0.13 |
| GQTTVQVRVPYRVVGLVVGPKGATIKRIQQQTHTYIVTPSRDKEPTFEVTGMPENVDRAREEIEMHI | -0.526 ± 0.1 |
| GQTTVQVRVPYRVVGLVVGPKGATIKRIQQQTHTYIVTPSRDKEPNFEVTGMPENVDRAREEIEMHI | -0.62 ± 0.24 |
| GQTTVQVRVPYRVVGLVVGPKGATIKRIQQQTHTYIVTPSRDKEPLFEVTGMPENVDRAREEIEMHI | -0.332 ± 0.061 |
| GQTTVQVRVPYRVVGLVVGPKGATIKRIQQQTHTYIVTPSRDKEPAFEVTGMPENVDRAREEIEMHI | -0.676 ± 0.083 |
| GQTTVQVRVPYRVVGLVVGPKGATIKRIQQQTHTYIVTPSRDKEPMFEVTGMPENVDRAREEIEMHI | -0.361 ± 0.081 |
| GQTTVQVRVPYRVVGLVVGPKGATIKRIQQQTHTYIVTPSRDKEPVCEVTGMPENVDRAREEIEMHI | -0.411 ± 0.13 |
| GQTTVQVRVPYRVVGLVVGPKGATIKRIQQQTHTYIVTPSRDKEPVDEVTGMPENVDRAREEIEMHI | -1.01 ± 0.35 |

| Variant | abundance fitness |
| --- | --- |
| GQTTVQVRVPYRVVGLVVGPKGATIKRIQQQTHTYIVTPSRDKEPVEEVTGMPENVDRAREEIEMHI | -0.658 ± 0.11 |
| GQTTVQVRVPYRVVGLVVGPKGATIKRIQQQTHTYIVTPSRDKEPVAEVTGMPENVDRAREEIEMHI | -0.889 ± 0.19 |
| GQTTVQVRVPYRVVGLVVGPKGATIKRIQQQTHTYIVTPSRDKEHVFEVTGMPENVDRAREEIEMHI | -0.502 ± 0.11 |
| GQTTVQVRVPYRVVGLVVGPKGATIKRIQQQTHTYIVTPSRDKESVFEVTGMPENVDRAREEIEMHI | -0.387 ± 0.072 |
| GQTTVQVRVPYRVVGLVVGPKGATIKRIQQQTHTYIVTPSRDKEKVFEVTGMPENVDRAREEIEMHI | -0.42 ± 0.18 |
| GQTTVQVRVPYRVVGLVVGPKGATIKRIQQQTHTYIVTPSRDKEGVFEVTGMPENVDRAREEIEMHI | -0.434 ± 0.063 |
| GQTTVQVRVPYRVVGLVVGPKGATIKRIQQQTHTYIVTPSRDKEVVFEVTGMPENVDRAREEIEMHI | -0.919 ± 0.17 |
| GQTTVQVRVPYRVVGLVVGPKGATIKRIQQQTHTYIVTPSRDKEAVFEVTGMPENVDRAREEIEMHI | -0.422 ± 0.083 |
| GQTTVQVRVPYRVVGLVVGPKGATIKRIQQQTHTYIVTPSRDKEQVFEVTGMPENVDRAREEIEMHI | -0.458 ± 0.13 |
| GQTTVQVRVPYRVVGLVVGPKGATIKRIQQQTHTYIVTPSRDKETVFEVTGMPENVDRAREEIEMHI | -0.493 ± 0.12 |
| GQTTVQVRVPYRVVGLVVGPKGATIKRIQQQTHTYIVTPSRDKERVFEVTGMPENVDRAREEIEMHI | -0.564 ± 0.076 |
| GQTTVQVRVPYRVVGLVVGPKGATIKRIQQQTHTYIVTPSRDKELVFEVTGMPENVDRAREEIEMHI | -0.479 ± 0.13 |
| GQTTVQVRVPYRVVGLVVGPKGATIKRIQQQTHTYIVTPSRDKEDVFEVTGMPENVDRAREEIEMHI | -0.677 ± 0.12 |
| GQTTVQVRVPYRVVGLVVGPKGATIKRIQQQTHTYIVTPSRDKEMVFEVTGMPENVDRAREEIEMHI | -0.467 ± 0.16 |
| GQTTVQVRVPYRVVGLVVGPKGATIKRIQQQTHTYIVTPSRDKECVFEVTGMPENVDRAREEIEMHI | -0.47 ± 0.092 |
| GQTTVQVRVPYRVVGLVVGPKGATIKRIQQQTHTYIVTPSRDKEEVFEVTGMPENVDRAREEIEMHI | -0.375 ± 0.09 |
| GQTTVQVRVPYRVVGLVVGPKGATIKRIQQQTHTYIVTPSRDKEIVFEVTGMPENVDRAREEIEMHI | -0.622 ± 0.29 |
| GQTTVQVRVPYRVVGLVVGPKGATIKRIQQQTHTYIVTPSRDKEFVFEVTGMPENVDRAREEIEMHI | -0.417 ± 0.13 |
| GQTTVQVRVPYRVVGLVVGPKGATIKRIQQQTHTYIVTPSRDKENVFEVTGMPENVDRAREEIEMHI | -0.821 ± 0.27 |
| GQTTVQVRVPYRVVGLVVGPKGATIKRIQQQTHTYIVTPSRDKWPVFEVTGMPENVDRAREEIEMHI | -0.695 ± 0.11 |
